Experimental findings from doi:10.1101/2022.07.21.501072 (bioRxiv, 2022) are described below.

To fix the notation:
B1: IcsA passenger C375S (secreted) (domain or fragment, Shigella flexneri, UniProt Q7BCK4 53-758, looked up)
chain: TPLSGTQELHFSEDNYEKLLTPVDGLSPLGAGEDGMDAWYITSSNPSHASRTKLRINSDIMISAGHGGAGDNNDGNSCGGNGGDSITGSDLSIINQGMILGGSGGSGADHNGDGGEAVTGDNLFIINGEIISGGHGGDSYSDSDGGNGGDAVTGVNLPIINKGTISGGNGGNNYGEGDGGNGGDAITGSSLSVINKGTFAGGNGGAAYGYGYDGYGGNAITGDNLSVINNGAILGGNGGHWGDAINGSNMTIANSGYIISGKEDDGTQNVAGNAIHITGGNNSLILHEGSVITGDVQVNNSSILKIINNDYTGTTPTIEGDLSAGDCTTVSLSGNKFTVSGDVSFGENSSLNLAGISSLEASGNMSFGNNVKVEAIINNWAQKDYKLLSADKGITGFSVSNISIINPLLTTGAIDYTKSYISDQNKLIYGLSWNDTDGDSHGEFNLKENAELTVSTILADNLSHHNINSWDGKSLTKSGEGTLILAEKNTYSGFTNINAGILKMGTVEAMTRTAGVIVNKGATLNFSGMNQTVNTLLNSGTVLINNINAPFLPDPVIVTGNMTLEKNGHVILNNSSSNVGQTYVQKGNWHGKGGILSLGAVLGNDNSKTDRLEIAGHASGITYVAVTNEGGSGDKTLEGVQIISTDSSDKNAFIQKGRIVAGSYDYRLKQGTVSGLNTNKWYLTSQMDNQESKQMSNQESTQMSSR
B2: IcsA passenger C375S/C379S double mutant (secreted) (domain or fragment, Shigella flexneri, UniProt Q7BCK4 53-758, looked up)
chain: TPLSGTQELHFSEDNYEKLLTPVDGLSPLGAGEDGMDAWYITSSNPSHASRTKLRINSDIMISAGHGGAGDNNDGNSCGGNGGDSITGSDLSIINQGMILGGSGGSGADHNGDGGEAVTGDNLFIINGEIISGGHGGDSYSDSDGGNGGDAVTGVNLPIINKGTISGGNGGNNYGEGDGGNGGDAITGSSLSVINKGTFAGGNGGAAYGYGYDGYGGNAITGDNLSVINNGAILGGNGGHWGDAINGSNMTIANSGYIISGKEDDGTQNVAGNAIHITGGNNSLILHEGSVITGDVQVNNSSILKIINNDYTGTTPTIEGDLSAGDSTTVSLSGNKFTVSGDVSFGENSSLNLAGISSLEASGNMSFGNNVKVEAIINNWAQKDYKLLSADKGITGFSVSNISIINPLLTTGAIDYTKSYISDQNKLIYGLSWNDTDGDSHGEFNLKENAELTVSTILADNLSHHNINSWDGKSLTKSGEGTLILAEKNTYSGFTNINAGILKMGTVEAMTRTAGVIVNKGATLNFSGMNQTVNTLLNSGTVLINNINAPFLPDPVIVTGNMTLEKNGHVILNNSSSNVGQTYVQKGNWHGKGGILSLGAVLGNDNSKTDRLEIAGHASGITYVAVTNEGGSGDKTLEGVQIISTDSSDKNAFIQKGRIVAGSYDYRLKQGTVSGLNTNKWYLTSQMDNQESKQMSNQESTQMSSR
B3: IcsA passenger C379S (secreted) (domain or fragment, Shigella flexneri, UniProt Q7BCK4 53-758, looked up)
chain: TPLSGTQELHFSEDNYEKLLTPVDGLSPLGAGEDGMDAWYITSSNPSHASRTKLRINSDIMISAGHGGAGDNNDGNSCGGNGGDSITGSDLSIINQGMILGGSGGSGADHNGDGGEAVTGDNLFIINGEIISGGHGGDSYSDSDGGNGGDAVTGVNLPIINKGTISGGNGGNNYGEGDGGNGGDAITGSSLSVINKGTFAGGNGGAAYGYGYDGYGGNAITGDNLSVINNGAILGGNGGHWGDAINGSNMTIANSGYIISGKEDDGTQNVAGNAIHITGGNNSLILHEGSVITGDVQVNNSSILKIINNDYTGTTPTIEGDLCAGDSTTVSLSGNKFTVSGDVSFGENSSLNLAGISSLEASGNMSFGNNVKVEAIINNWAQKDYKLLSADKGITGFSVSNISIINPLLTTGAIDYTKSYISDQNKLIYGLSWNDTDGDSHGEFNLKENAELTVSTILADNLSHHNINSWDGKSLTKSGEGTLILAEKNTYSGFTNINAGILKMGTVEAMTRTAGVIVNKGATLNFSGMNQTVNTLLNSGTVLINNINAPFLPDPVIVTGNMTLEKNGHVILNNSSSNVGQTYVQKGNWHGKGGILSLGAVLGNDNSKTDRLEIAGHASGITYVAVTNEGGSGDKTLEGVQIISTDSSDKNAFIQKGRIVAGSYDYRLKQGTVSGLNTNKWYLTSQMDNQESKQMSNQESTQMSSR

The series concerns the molecule itself. Description: semi-denaturing SDS-PAGE.
B1: the “stoichiometry N” value turned out to be 2.

As for B2, the “stoichiometry N” value worked out at 2.

In the case of B3, the “stoichiometry N” value was determined as 2.

One may read the stoichiometry N as a count of units in the complex or per binding partner.
